Results taken from PMC12751049.

What was measured:
[1] = molecular target: Complement 1q binding protein (C1qBP), recombinant His-tagged, residues 75-282 (human); assay: dynamic and static light scattering (DLS/SLS); C1qBP at 0.8 mg/ml, 20 mM HEPES pH 7.4, 37°C, with 2.5 mM CaCl2; trimer to dimer of trimers
[2] = molecular target: Complement 1q binding protein (C1qBP), recombinant His-tagged, residues 75-282 (human); assay: SEC-MALS; Superdex 200 10/300 GL, 20 mM Na2HPO4, 20 mM NaCl, pH 6.5; proteins at 2-4 mg/ml alone or CypD:C1qBP mixture at 2:1 molar ratio; eluted complex checked by SDS-PAGE

Substance: Complement 1q binding protein (C1qBP), recombinant His-tagged, residues 75-282 (natural protein)
- stoichiometry N [1]: 6
- stoichiometry N [2]: 3

Substance: Cyclophilin D (CypD), recombinant, residues 44-207 (enzyme)
- stoichiometry N (CypD per C1qBP trimer) [2]: 1
